# Earlier results in article PMC6815954, “Rational design of caspase-responsive smart molecular probe for positron emission tomography imaging of drug-induced apoptosis” (Theranostics, 2019).
# B1: ^99mTc-Annexin V: established radiotracer (protein, UniProt P08758 2-320, looked up)
# Annexin A5: AQVLRGTVTDFPGFDERADAETLRKAMKGLGTDEESILTLLTSRSNAQRQEISAAFKTLFGRDLLDDLKSELTGKFEKLIVALMKPSRLYDAYELKHALKGAGTNEKVLTEIIASRTPEELRAIKQVYEEEYGSSLEDDVVGDTSGYYQRMLVVLLQANRDPDAGIDEAQVEQDAQALFQAGELKWGTDEEKFITIFGTRSVSHLRKVFDKYMTISGFQIEETIDRETSGNLEQLLLAVVKSIRSIPAYLAETLYYAMKGAGTDDHTLIRVMVSRSEIDLFNIRKEFRKNFATSLYSMIKGDTSGDYKKALLLLCGEDD
# modifications: 99mTc radiolabel
# notes: established radiotracer
# System: tumor
# Design: method as in PMID 25972517
molecule,measurement,value
B1,differential response to treatment,little differential response
